These results are taken from the supplement of paper PMC12636428.

The data set has as its system Saccharomyces cerevisiae. Briefly: transcriptional activation domain activity (GFP:mCherry ratio, weighted mean of sorted bins, harmonized to initial dataset scale) (arbitrary fluorescence ratio units); higher = stronger transcriptional activation. The note with it: beta-estradiol 1 µM; induction time 4 h. A digest of the protocol: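 Barcoded tiles were sequenced after cells were sorted into 8 bins by GFP:mCherry ratio. Before sorting, cultures had been diluted 1:5 into SC with 1 uM beta-estradiol and held for 4 hours at 30 °C. The tiles were fused to an estradiol-inducible synthetic transcription factor and integrated at URA3 in yeast diploids carrying a GFP reporter. Activation activity is the read-weighted mean of bin median fluorescence, averaged over barcodes and linearly mapped onto the initial dataset scale, and tiles under 50 reads were left out.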
“TEEVVEPAAEKPAKKSRKRKSDVAEAVAEEKPETPVKPKKAKKEVAKAEEVVA”: the “transcriptional activation domain activity” value is 20400.

Turning to “LTWDVFKLALFFCLFQDISFSFCTFLLCFFLICFAYIVYPLSLSLLNGVLFDP”, the “transcriptional activation domain activity” value was determined as 44900.

For “EEEESAAAAKKMAAVKTRKARAGSPKTKSARKATSTRPTSKTKGGAKAKRAAA”, the “transcriptional activation domain activity” value came to 20900.

With “AEDSDASMDDAPAPKEAAKKAAPVEAGSDSESDSEAEKKKKKAAKKSKKEVVP”, the “transcriptional activation domain activity” value turned out to be 22600.

With “WYTTISSTGLLSLLLYSLPFQPARLWVLGGILYIFSLVSFCALLLVHLVRFLV”, the “transcriptional activation domain activity” value turned out to be 47500.

As to “CPELYQTHLQITGIITIDTYFSFNDYDAWVQLRDVLDLWLGRAWVFNVVIWKY”, the “transcriptional activation domain activity” value worked out at 61500.

Consider “FLMVLCLFCIVYLFFSCFPFFAMSYVLLLLFCFYCILFYFSCPFCFVICNSVV”, for which the “transcriptional activation domain activity” value worked out at 54000.

Consider “ASASASASRHKKDKDRKKKHKEKDGKSSKHKKHKSSSRRSRSRSRDKDRHGDR”, for which the “transcriptional activation domain activity” value came to 33300.

Consider “KFYARILKLLLLLNHILIIAGVNESPYSKDKVIRYLFNMFRLWTTKRSAKENQ”, for which the “transcriptional activation domain activity” value was determined as 62000.

“VTCGLLKVAIDLINHFPLFALVLRVKDPRRLPGSTYFRVIHDKGQTILMLEVD”: the “transcriptional activation domain activity” value came out at 40300.

Consider “LLRFSLLLMFPWLVCLVSCFPCFPLLLPTSCATRFRFLHPFLTVSLLSLLFLC”, for which the “transcriptional activation domain activity” value was determined as 56800.

For the sequence “HKLALNLKTAWKGRKYEIPLFGVHIAGQYVSTYIFYEVASFKAFFNYIFSFTR”, the “transcriptional activation domain activity” value was 69100.

Consider “NSTIHNLLEVVLLPDLCGFCCFSMRFVVLLDLIGTLTLPVTCLYLIYLIYVIA”, for which the “transcriptional activation domain activity” value came to 52100.

Consider “GDADEDGNGHGTHCSGTVAGKKYGVAKKANVYAVKVLRSNGSGSMSDVVKGVE”, for which the “transcriptional activation domain activity” value was determined as 30300.

Turning to “ELGAIEESKLCIVLLGTFRLLSFDCRTFAKYVRPLSLERLFNHTSRIVRLLAI”, the “transcriptional activation domain activity” value came out at 44000.

On to “RSKSSDESSSDSDSDSGSESGSDSDTSRRKRSKSKSSSRSKSKSKSSKLRARS”, for which the “transcriptional activation domain activity” value amounted to 10600.

Take “SVSRLHAKIEYEEENERFVLVVLGRNGAWVDGIWSGSGSRVPLGPRSQIQIAT”: the “transcriptional activation domain activity” value was determined as 31600.

For the sequence “MFFKMMTTQDIQFVNVCFKLHSTLPMLFIGGIFLIIHCTSSSAIKGRICTAAF”, the “transcriptional activation domain activity” value amounted to 34100.

Consider “MLTWFFSYRLELLPFFYIIFSPIVFLLFSIFLLVLLRSFVCRLICFCLFLQSV”, for which the “transcriptional activation domain activity” value came out at 56500.

For the sequence “HSITNFELVEDAPHQVGFSTPQMTAKQLMESVSELDLPPLTLDEPPQAIKFNL”, the “transcriptional activation domain activity” value amounted to 75900.

As for “TLRVLLLQISPLAYARGLKDFLIHLISWTDGTWDSLDPLPWWWLYHVYWPLQF”, the “transcriptional activation domain activity” value came to 81000.

Regarding “TIIGLTSAVLLPVVVFIPYIPCWLFLYLVNLLFPLIFICFTGKVIQLTFLYYS”, the “transcriptional activation domain activity” value stood at 50100.

With “HINYFSLSLIIFYFLIFFISNYLLIKFLFFNYFLPKWWSSRPLRSMIYSLFSI”, the “transcriptional activation domain activity” value stood at 42500.

On to “RDVFLGILHRNWFNRVWILQEVASARAAVVFCGRNSISTRIFTRLPLLFDITP”, for which the “transcriptional activation domain activity” value amounted to 68000.

Take “KREDIVRVVNGIFCCYILTFSLFFLFFLVYPSLCFLCLFPLCGVLSFFYLYFP”: the “transcriptional activation domain activity” value stood at 20900.

Consider “MLNLHQSCLLLCSLLIITGLGLASTIFIPVNPFYQLLLMENSAFPWIHFVIYC”, for which the “transcriptional activation domain activity” value came to 38500.

In the case of “VFSQTEAIRVLGLIGRIATGRHLDIILSDILPPSTVAELYALGKFMNLPWWYR”, the “transcriptional activation domain activity” value was 58400.

“VPLEEYIPSDIDGVGRVTDKSSLVYDWPFDESIERNFSTTATAATGESKFDIN”: the “transcriptional activation domain activity” value is 68100.

As for “QITNRILPSPAAVRYSGLIPLLVLVLVLPLFFLFFLFFFFFLFLFLFFLVLLY”, the “transcriptional activation domain activity” value was found to be 58800.

Take “VSMMQRILNIVCILPSLLERYDTLVALSETSNLGEVERLWIDCHAFLTNLRIW”: the “transcriptional activation domain activity” value was 62400.

In the case of “MGGFVYAYCSAQSLTLLPWLLFFDYLFFSFLCILNYISFLFFYFLGFEVGWVI”, the “transcriptional activation domain activity” value is 71200.

For the sequence “MGCILIFIFTFPYTPSFPFPFWFLFFVFLSFSFSFQKFLVFSFLSFVWVTVGR”, the “transcriptional activation domain activity” value is 51700.

For the sequence “TGDDDAAKTTPKKRGDADGTPKTAKSTPRKRKTKAEGDGECSPKKRGRKTKVV”, the “transcriptional activation domain activity” value worked out at 36500.

For “RRNRRTDKKRNEKESEHEGSTRKRTSYDKDDERAHSDSRRSRHHHRKERKNRH”, the “transcriptional activation domain activity” value was found to be 32100.

Regarding “FRRYKGPGREDEETDDEDEVRPRRPMEMKKRVLHLLTTEITINTTLYGDFTAF”, the “transcriptional activation domain activity” value came to 27700.

Consider “AEKEAEPEKEAGSESPQKKITPMKRGRGRPKRGGGAAGASSPEPAAVVVVAER”, for which the “transcriptional activation domain activity” value was found to be 14700.

“SMLKIARQSPRGIRDSKGGEGFLLLESGDQSTNIVTVVRIKLLMEKLYTLPEL”: the “transcriptional activation domain activity” value was 32200.

Consider “ADASSSRPQQSKGDKGRSRAPGADRKQESSSSSARASGTGGNNTNGGSSSNNN”, for which the “transcriptional activation domain activity” value came to 34100.

As for “WLLQYMMLLGTLRRQSDKLVVKVGWYMANYLVPGIYVFQPRIVMKVLLLILRQ”, the “transcriptional activation domain activity” value came out at 44500.

Turning to “RLNFLLFCLSLFLSLYFFPFCLLFFLFSLSSFLFCLPSFLSLLSSFFFFFVSL”, the “transcriptional activation domain activity” value is 57200.

For “YTTPQFAGMWSQLVEWQWLVIEKFLDILLNMLYLLHGMSYIWGNLFLPYFRLV”, the “transcriptional activation domain activity” value is 53600.

As for “PTPSGDPEEEEEGEGEEGGEERGGGGGGGGGKKKNHAGAIAGGVVGGVAVIGL”, the “transcriptional activation domain activity” value was found to be 24600.

For the sequence “EDGRGSRRRKSRSRGREEEDSSSRRRKDRSRSRSVDKERKKRKRDKSEDRKAR”, the “transcriptional activation domain activity” value amounted to 31800.

With “DSSEVQRKKRRDSRKSKKESKSSSRRKDRSKDRSGRSKQRESKKKDRRRARSE”, the “transcriptional activation domain activity” value was less than 6570.

As to “FTSIMMTLVSLVQVGLLQFQCRDLLLCGIYIFYCLIKVPYLSLICSATLLVYG”, the “transcriptional activation domain activity” value turned out to be 44300.

As for “LHSFRRQNGFIRLNIWDLNPSPKILQLYLLTQTIKRYIVLCLLLNLGFTIAQC”, the “transcriptional activation domain activity” value stood at 60700.

Take “LLTEHFLLRVFAVFTAYIVELWMLKVAYLGYYFQLRQYLSEKSRMIYIGTCVY”: the “transcriptional activation domain activity” value came out at 63300.

Regarding “HPLSQRYVLIMSITRLCIPLYFYGYEDNFIGHETTHWIWILVIYVSLQVLILF”, the “transcriptional activation domain activity” value was 40200.

As to “QESEAVTEKCKNRLDITSEELERVLLQKEGESLKDNAVQQRQGAGGKRAIGKA”, the “transcriptional activation domain activity” value was found to be 23500.

Turning to “MSLLYYMVQSTTTMLLLTPPLCFTFFFIFFLLIFLFFIFYFLFLFYFINRDQS”, the “transcriptional activation domain activity” value worked out at 47600.

Take “GPLCMDQYRRIFGVTRRPGLSVDSTVLASDLNGRVSILVLLRNRLFRLSLPTG”: the “transcriptional activation domain activity” value was 42400.

Consider “SLILVTYNTSHIACFYLLPQPHYFHLTSFLFLSIFFFLFSSLEHGSSFLAFFH”, for which the “transcriptional activation domain activity” value stood at 52500.

With “VSVGLLDLLAYCGYGFIGVNATSVVKIFSSDSFWAVYGMFSYTMICLAFFTLR”, the “transcriptional activation domain activity” value was determined as 25800.

In the case of “TAVSQLERAIARILLIRYEQDIARLFSTRLYSVALVHLPTFVMRCAALAGPGW”, the “transcriptional activation domain activity” value was 50400.

As to “RCANARIVWGARVVGVGGQGEGEAKAWVDVEMAGEEGAKRVERREADFVVGCD”, the “transcriptional activation domain activity” value was 37600.

For the sequence “MSFFFFFIRYFPWLFDFWLLAFVFYCLLIPRLNIFFLSFSCFNFLVFSLLLVG”, the “transcriptional activation domain activity” value turned out to be 56000.

Take “RGRLPCRYTIWIYSLTRVACLLGVIVCTVGMDVSTSYNCQLWVSSVATLFCVT”: the “transcriptional activation domain activity” value was 70300.

As to “DNAQANAGGARGRRDDGAGTSKEDGEEEGAYEGDSEEDKKKRRKGRSKRRGGD”, the “transcriptional activation domain activity” value was found to be 48100.

“MRKLQVRSWSGLHVLSHFQIFDLLALIPGGWCNQILWLQGHHQWYIVILFVFT”: the “transcriptional activation domain activity” value came out at 65800.

On to “CTYVRESIKQFNGTYSKALEVRQRSIQFLGQRTKLCWYWLMLRYHLSTLMLVD”, for which the “transcriptional activation domain activity” value was found to be 39700.

Take “IPLKKLCHAAIADLFRFLVLSKKDSKDIVARQRLQVAAWMGLWPPKIQRNKWV”: the “transcriptional activation domain activity” value was 45600.

In the case of “LSSSPSAQMATNTNVVVVIGDDKRVKEVGDALKTKLGVKGGGKGMRWSGKFVG”, the “transcriptional activation domain activity” value was determined as 26700.

“FPAHFLSLLLTPISFSPLPIFPCTYINFLPLLQYLLLGNFFFGCIIWRPMTFC”: the “transcriptional activation domain activity” value is 59000.

With “FFHVTIRVASQSCGIAFGILGFSNFRVFLAYLILGAEGYFTLVLCAFRFLISW”, the “transcriptional activation domain activity” value turned out to be 61100.

Regarding “WKATKYLIGLWIQCFRDRGLIGPVGYRGHVHCVVRFCLCLIPKSHWQTIIVVT”, the “transcriptional activation domain activity” value was determined as 63500.

As to “FRSFVLMRLLVPIPAYFVLSCMFSMINLPFKLSFGGMGYGYGAGFMIWWCFTF”, the “transcriptional activation domain activity” value worked out at 65100.

For the sequence “LPQMGVPGEPLTLLVEFADMLIEMWHQCLAQRYYGPIYHLVALIVYTLELNAT”, the “transcriptional activation domain activity” value was 54200.

On to “RPSSAVVHAPRSKRAALRPSAPARCPPSSSSSSSPSTSPSCRRPASPTTSTCP”, for which the “transcriptional activation domain activity” value came out at 30700.

With “WSVLLCFAVSFFSFSFLSFWAVTALCYGFVFVFFILLCVLCCFSFAFSHVYLF”, the “transcriptional activation domain activity” value worked out at 49600.

For the sequence “IIFLIMRAMVGLQVLNENVIEKILMYLKLQWVAVFIYWQVLWLVKFSLLIFFK”, the “transcriptional activation domain activity” value worked out at 75400.

On to “FATFYVARDVFHVTPNELHSIMYLHISSAPHFVIFSTRVPGFWWENMPHWLFF”, for which the “transcriptional activation domain activity” value came to 51500.

With “SGSGAEGASGTEHRRRASTRGRGRGRGRGGRAGRGGRAKTNGEGAELAGEEAG”, the “transcriptional activation domain activity” value was less than 6570.

Regarding “GGGSAVWIFLYCVWYYFVKLQITGFLSSLLFFSYSLMACCVYGLLTGMVGFLT”, the “transcriptional activation domain activity” value came out at 60400.

With “MTEPMLFFVLYFIRLLPFSFIFFHFLSFSLSILFFVILFSSSFHPFSSSFFFI”, the “transcriptional activation domain activity” value was determined as 53400.
